Assay: soluble on expression in E. coli; label from the status in PepcDB or PDB records

Row | Sequence | soluble on expression in E. coli
1 | MGSDKIHHHHHHMALYEPFPNYIWNLSVSIAMESGGQIGEIVDMCQPIIDAASNGGDAGTPQFMKQWAAYGDKLIALAAEDEARGRMFSASNKLERASLYLLVAERMQGHGAPGRKESYAKARDAFDKSTALGKINRERVEIPLGKGTMPALYTRAPGNGPHPVVVYCNGLDSCKELLYWSRLPEALARRGISTICVDQPGSGEALRLQDLPVDPHSENWASKAVDWLEQQPDVDPKRIGMTGISLGGHFAPRAVAYEPRFASGAVWGANHNWREVQDKRLKREGENPVPHYWAHVMWAFGASDMDDFMVKSEDMNLNGHMDRIKVPFLVTHGADDRQISVSYADDLYDQLVNSPRREKVIFTAREGGVEHVGADNMAYGRDCIADWFAETLGGTTA | not soluble
2 | MCSKNSENSNVPRAKSDFITPNCSENTKLFMIFQSRKSIICEVCGKKYSSKSALAKHKRTHETDKRCKIKLIFGSSQKKTQKLYFLQKLSFLDADFFSILERNLLIFGYFAIFFSQKNTYISRFTCPMCYASFDLSDPFKIHLRKHDNLKPFGCSYCFKQFSSRSVCRRHVQLMHENQKRAGDGDNDDDDDID | not soluble
3 | MMVRILTRLGQVREAEEKYRRELVDFRMGEVYGNLRAIIADEDVEVRAGEAKPVKIKEVSIPANHIVFMCAYATNPLGHPIAAGEETPLPISMDRKADHATFVAAADGKISRNDLLGVLIILPVELTH | not soluble
4 | MNVEINGKSLELSFGFKFLREIDNRLGLKVEQASIGQGVSMLPVGLESGNPVVIGEVLIASTSHLKKQAITINNIDEALDEIAENIGLEEFGSDILTELGKRPMTRNLVEVVETEEKPAEALEHHHHHH | not soluble
5 | MSLSTPSKAMAAMEFNTTSVNKSSAIDSNNTKKEQLSDVNDISFTDHGYYIIPSLDTLNGMPLVELRSVNGLVVGHKDYGKVEFLEPVDLVNVPLNSICDKLIHFEPKTCILYPNSPIKPKKGEGMNVPAKITCFDCFPINKSTREPILDANSTLLKKHIDKLKKVPGTKFVSYEEKTGKYVFTVDEPILEGHHHHHH | soluble
6 | MGSDKIHHHHHHMSKVIITCAVTGAIHTPSMSRYLPVTPEEIIEASVGAAEAGAAIIHLHARDPVTGKPDQSPDAFGRFLPQIKARTDAVLNITSGGSPYMTIEERIQPSMRFAPEVASLNMGSMNFALFPMLARFKEFKHAWEREALEASRDLIFRNTFKDIEYALAQCAANDTRFEFECYDVGHLYNLAHFVERGLVKAPFFVQTVFGILGGIGTHPEDVSHMKRTADRLFGNDYRWSVLGAGKDQLRLAGMSASMGGNVRVGLEDSLWLGRGTLAESNAAQVRQARQIIEGLGLEIASPNEAREILQLKGIEKVKF | not soluble
7 | EGSARFMPELTARAGFAFIPSIAIIKNKVFEPDDPQELEAYQSVLGYTPGIRGNLKVSSFSGHMLADYHPFKNAFRVTAGLYFNRPQINAKVQLINQNTGQSIMNDQSTLNPNNMPVITIKDKDNPADKVSIQPSSTAEVEASVHLGRTVQPYIGIGYGFAVPVSRVSFFADLGMLFSGKAQISSPNVIAGDPNLLIDFSEDAQEAVYSTQILPVLNIGVSIRLF | not soluble
8 | MGSDKIHHHHHHMANQLILLKKDFFTDEQQAVTVADRYPQDVFAEHTHEFCELVMVWRGNGLHVLNERPYRITRGDLFYIRAEDKHSYTSVNDLVLQNIIYCPERLKLNVNWQAMIPGFQGAQWHPHWRLGSMGMNQARQVINQLEHESNGRDPLANEMAELLFGQLVMTLKRHRYATDDLPATSRETLLDKLITALANSLECPFALDAFCQQEQCSERVLRQQFRAQTGMTINQYLRQVRICHAQYLLQHSPLMISEISMQCGFEDSNYFSVVFTRETGMTPSQWRHLSNQSD | not soluble
9 | MPVDRILEAELAVEQKSDQGVEGPGGTGGSGSSPNDPVTNICQAADKQLFTLVEWAKRIPHFSSLPLDDQVILLRAGWNELLIASFSHRSIDVRDGILLATGLHVHRNSAHSAGVGAIFDRVLTELVSKMRDMRMDKTELGCLRAIILFNPDAKGLSNPSEVEVLREKVYASLETYCKQKYPEQQGRFAKLLLRLPALRSIGLKCLEHLFFFKLIGDTPIDTFL | soluble
10 | TRGGDSAAAPLDPPKSTATRCLSCNKKVGVTGFKCRCGSTFCGTHRYPESHECQFDFKGVA | soluble
11 | SRVDKFSKSDIIVSPSILSANFSKLGEQVKAIEQAGCDWIHVDVMDGRFVPNITIGPLVVDSLRPITDLPLDVHLMIVEPDQRVPDFIKAGADIVSVHCEQSSTIHLHRTINQIKSLGAKAGVVLNPGTPLTAIEYVLDAVDLVLIMSVNPGFGGQSFIESQVKKISDLRKICAERGLNPWIEVDGGVGPKNAYKVIEAGANALVAGSAVFGAPDYAEAIKGIKTSKRPE | soluble
12 | HLYPGEVCPGMDIRNNLTRLHELENCSVIEGHLQILLMFKTRPEDFRDLSFPKLIMITDYLLLFRVYGLESLKDLFPNLTVIRGSRLFFNYALVIFEMVHLKELGLYNLMNITRGSVRIEKNNELCYLATIDWSRILDSVEDNHIVLNKDDNEECGDICPGTAKGKTNCPATVINGQFVERCWTHSHCQKVCPTICKSHGCTAEGLCCHSECLGNCSQPDDPTKCVACRNFYLDGRCVETCPPPYYHFQDWRCVNFSFCQDLHHKCKNSRRQGCHQYVIHNNKCIPECPSGYTMNSSNLLCTPCLGPCPKVCHLLEGEKTIDSVTSAQELRGCTVINGSLIINIRGGNNLAAELEANLGLIEEISGYLKIRRSYALVSLSFFRKLRLIRGETLEIGNYSFYALDNQNLRQLWDWSKHNLTITQGKLFFHYNPKLCLSEIHKMEEVSGTKGRQERNDIALKTNGDQASCENELLKFSYIRTSFDKILLRWEPYWPPDFRDLLGFMLFYKEAPYQNVTEFDGQDACGSNSWTVVDIDPPLRSNDPKSQNHPGWLMRGLKPWTQYAIFVKTLVTFSDERRTYGAKSDIIYVQTDATNPSVPLDPISVSNSSSQIILKWKPPSDPNGNITHYLVFWERQAEDSELFELDYCLKGLKLPSRTWSPPFESEDSQKHNQSEYEDSAGECCSCPKTDSQILKELEESSFRKTFEDYLHNVVFVPRPSRKRRSLGDVGNHGNNVPTVAAFPNTSSTSVPTSPEEHRPFEKVVNKESLVISGLRHFTGYRIELQACNQDTPEERCSVAAYVSARTMPEAKADDIVGPVTHEIFENNVVHLMWQEPKEPNGLIVLYEVSYRRYGDEELHLCDTRKHFALERGCRLRGLSPGNYSVRIRATSLAGNGSWTEPTYFYVTDYLDVPSNIAK | soluble
13 | MGHHHHHHSHMATSATSPHAPGFPAEGRCGYYVEKKKRFCRMVVAAGKRFCGEHAGAAEEEDARKRILCPLDPKHTVYEDQLAKHLKKCNSREKPKPDFYIQDINAGLRDETEIPEQLVPISSLSEEQLEKLIKKLRKASEGLNSTLKDHIMSHPALHDALNDPKNGDSATKHLKQQVCLGYSNY | not soluble
14 | MNLMLCCTPLQVLIARKIIELHPNEQFFGVMFGGVWDKKRTLYASKLAEVCSDSMNIDTGKDLKGFDFLKLMRQLKNKITHKGFDKVFLANLNSLWLQTYLSHVSFKELYTFDDGSDNIFPHPNLLREPGTFKYKLIKAFIGDKYSVNKLFKKIKKHYTVYPNYKNIVSNIEPISLWDNQIDCEIDGEVSFFIGQPLLNTKEENISLIKKLKDQIPFDYYFPHPAEDYRVDGVNYVESELIFEDYVFKHLSNKKIIIYTFFSSVAFNLLSHPNVEIRFIRTSIPRWQFCYDSFPDLGLTIYKEI | not soluble
15 | MGSDKIHHHHHHMAKLYFNYSTMNAGKSTVLLQASHNYRERGMQTYLMTAAIDGRAGTGRIASRIGIGAEADIFTPRDDVFAMIRDRLGAGPVACVFVDEAQFLSPEQVWQLARVVDDLDVPVLAYGLRVDFQGKLFPGSATLLALADEMREVRTICKCGRKATMVIRQDASGRAITEGAQVQIGGNETYVSLCRKHWREATGDPGAKGH | not soluble
16 | MAKHGADEPSSRSGSPDREGRASEDRSLLHQRLAVRELIDTEVSYLHMLQLCASDIRSRLQQLPQGDLDVLFSNIDDIIKVNSRFLHDLQETASKEEEQVQLVGNIFLEFQEELEQVYKVYCASYDQALLLVDTYRKEPELQRHIQGIVEAVVPQAGSSGLSFLLVIPLQRITRYPLLLQKILENTVPDASAYPVLQRAVSALQDVNTNINEYKMRKEVASKYTKVEQLTLRERLARINTHTLSKKTTRLSQLLKQEAGLIPRTEDKEFDDLEERFQWVSLCVTELKNNVAAYLDNLQGAVGFYHWLTPTQMIDGLALGESTPGPLIMVVAFVGFLAAYNHSLLGAEHQFIAVLQDVRDHRITQVRAAEILNLSTRQITRLLQKLNQDGVSGLAHASRGQPGHHRHDELLKSKCLSIISEHLLGFGPTLAHEKLSSIFDLNIPVETVRRWMMANDLWIPRSKRLKRPYQPRYNRDCFGELIQIDGSYHDWFEGRAAKCCLLVYIDDATGKLLHLRFCEAETTFDYMLSTRAYIEQYGKPLAFYSDKHSVFRVNQKSRKDSQITQFGRILNELNIDIIFANSPQAKGRVERANRTLQDRLIKEMRLEGISSIAEANAWLPCFIEHFNQKFAKCARNSKNLHRSLTESDAELEDIFTWQEPRKVTKNLTITYDKCIYLLEPTELNHKLVGQYISFLEYPDGTVALMHEGRKINYSVFNKLAGLQQNEVVENKRLGSVLAHIQQQHEELEKQNKRSRLKKSMPSRKAQKAVIEQRKLNPVLDSCG | soluble
17 | RAETAVQRTEDRYHNLVDTAPIPILLFDRDWKALYANEAAIAFLDADSFTEIAGKKASDFLHPDERDAARKRFQRLMREGVSVPEREYRVMTAEGEVKTATIATAPGYYRGEQVAQAMV | not soluble
18 | GPLGSHMASEFINQGDVTEGNNNQEEVYCFCRNVSYGPMVACDNPACPFEWFHYGCVGLKQAPKGKWYCSKDCKEIANQRSKSKRQKRRK | soluble
19 | GMAFMEKIFPDILEAIRNEEIIKESKKIPMPYFGLFALVIFDKVKELGSETSLYEIGEEFGKMLSPKNIEELKKIFKLMNFGDLEIDENKILLKNPPYKIKLSNPPYQWVSKEEPIHDFIAGILAGCLEEIFYYYFVVNEVECVSQGKDKCVFEVKEVDELNK | soluble
20 | MKDDRQKASVLAVRMIPNVDLAMCKEFSMPEGHRSIGLITSDCDDVTYTALDDATKKADIKVVYAKSFYGGAANANTKLAGEVIGIISGPNPAEVKSGLSAVVDFVENEAAFISANEDDSIAYYAHCISRTGSYLSEVAGIPEGESIAYLIAPPLEAMYALDVALKSANVELVAFYGPPSETNFGGGLLTGSQSACKAACDAFAEAVKAVAANPLGY | not soluble
21 | MGSDKIHHHHHHMKTWTPDLSRSDGPRYLAIADVIEMDLKSGRLLVGDRLPPQRDLAKRLAIDFTTVARGYVEAQKRGLVATHVGRGTFVTGGPEKERRGFVSEAALDARRMSVVDFSMNMPPEPDDPDLLARMQEGLSAVATNMIPLLRYQGFGGAGMDKEAAASWLSRRGLVPSQERIFVTPGAHPALLAIFGLLAKPGEMVLSENITYPGMRSIAAQLRLNLTGLPMDADGIIPGAFAEICETAKPKALYLNPTLQNPMTLTIPEKRREEICAVARKYHVPIVEDDAYGFIPLHSPAPLAAMAPDLTWHIGGLAKCIGAGLRLAYVVVPDTKAAWPFASAMRAASVMASPLSAALATRWIEDGTADSILRFIRTEAAARQALVAEVLPAGSYQSDPISFNIWLPLTNGWTRSTFGTHMRASGIGVVASDAFTVDGVAEEAVRVCLGGPIRRETLKGALEFMGHALEGSPQMAGTFF | not soluble
